Results taken from patent publication US20160145657A1, “Methods and Materials for Producing 7-Carbon Chemicals via a C9 Route” (INVISTA North America S.á.r.l., priority 2014, published 2016).

B1: SEQ ID NO 7: Chromobacterium violaceum ω-transaminase, Genbank Accession No. AAQ59697.1 (protein)
chain: MQKQRTTSQWRELDAAHHLHPFTDTASLNQAGARVMTRGEGVYLWDSEGNKIIDGMAGLWCVNVGYGRKDFAEAARRQMEELPFYNTFFKTTHPAVVELSSLLAEVTPAGFDRVFYTNSGSESVDTMIRMVRRYWDVQGKPEKKTLIGRWNGYHGSTIGGASLGGMKYMHEQGDLPIPGMAHIEQPWWYKHGKDMTPDEFGVVAARWLEEKILEIGADKVAAFVGEPIQGAGGVIVPPATYWPEIERICRKYDVLLVADEVICGFGRTGEWFGHQHFGFQPDLFTAAKGLSSGYLPIGAVFVGKRVAEGLIAGGDFNHGFTYSGHPVCAAVAHANVAALRDEGIVQRVKDDIGPYMQKRWRETFSRFEHVDDVRGVGMVQAFTLVKNKAKRELFPDFGEIGTLCRDIFFRNNLIMRACGDHIVSAPPLVMTRAEVDEMLAVAERCLEEFEQTLKARGLA
B2: SEQ ID NO: 4: Segniliparus rugosus carboxylate reductase, Genbank Accession No. EFV11917.1 (protein)
chain: MGDGEERAKRFFQRIGELSATDPQFAAAAPDPAVVEAVSDPSLSFTRYLDTLMRGYAERPALAHRVGAGYETISYGELWARVGAIAAAWQADGLAPGDFVATVGFTSPDYVAVDLAAARSGLVSVPLQAGASLAQLVGILEETEPKVLAASASSLEGAVACALAAPSVQRLVVFDLRGPDASESAADERRGALADAEEQLARAGRAVVVETLADLAARGEALPEAPLFEPAEGEDPLALLIYTSGSTGAPKGAMYSQRLVSQLWGRTPVVPGMPNISLHYMPLSHSYGRAVLAGALSAGGTAHFTANSDLSTLFEDIALARPTFLALVPRVCEMLFQESQRGQDVAELRERVLGGRLLVAVCGSAPLSPEMRAFMEEVLGFPLLDGYGSTEALGVMRNGIIQRPPVIDYKLVDVPELGYRTTDKPYPRGELCIRSTSLISGYYKRPEITAEVFDAQGYYKTGDVMAEIAPDHLVYVDRSKNVLKLSQGEFVAVAKLEAAYGTSPYVKQIFVYGNSERSFLLAVVVPNAEVLGARDQEEAKPLIAASLQKIAKEAGLQSYEVPRDFLIETEPFTTQNGLLSEVGKLLRPKLKARYGEALEARYDEIAHGQADELRALRDGAGQRPVVETVVRAAVAISGSEGAEVGPEANFADLGGDSLSALSLANLLHDVFEVEVPVRIIIGPTASLAGIAKHIEAERAGASAPTAASVHGAGATRIRASELTLEKFLPEDLLAAAKGLPAADQVRTVLLTGANGWLGRFLALEQLERLARSGQDGGKLICLVRGKDAAAARRRIEETLGTDPALAARFAELAEGRLEVVPGDVGEPKFGLDDAAWDRLAEEVDVIVHPAALVNHVLPYHQLFGPNVVGTAEIIRLAITAKRKPVTYLSTVAVAAGVEPSSFEEDGDIRAVVPERPLGDGYANGYGNSKWAGEVLLREAHELVGLPVAVFRSDMILAHTRYTGQLNVPDQFTRLVLSLLATGIAPKSFYQQGAAGERQRAHYDGIPVDFTAEAITTLGAEPSWFDGGAGFRSFDVFNPHHDGVGLDEFVDWLIEAGHPISRIDDHKEWFARFETAVRGLPEAQRQHSLLPLLRAYSFPHPPVDGSVYPTGKFQGAVKAAQVGSDHDVPHLGKALIVKYADDLKALGLL

What was measured:
[1] = literature reports; cited from earlier work
[2] = ω-transaminase activity, forward direction (pimelate semialdehyde to 7-aminoheptanoate), pyruvate formation by RP-HPLC; assay type: biochemical; conditions: conclusion from reverse and forward assays of Example 1
Description: (§1) A nucleotide sequence encoding an N-terminal His-tag was added to the nucleic acid sequences from Chromobacterium violaceum, Pseudomonas syringae, Rhodobacter sphaeroides, and Vibrio fluvialis encoding the ω-transaminases of SEQ ID NOs: 7, 9, 10 and 12, respectively (see FIG. 6) such that N-terminal HIS tagged ω-transaminases could be produced. Each of the resulting modified genes was cloned into a pET21a expression vector under control of the T7 promoter and each expression vector was transformed into a BL21[DE3] E. coli host. The resulting recombinant E. coli strains were cultivated at 37° C. in a 250 mL shake flask culture containing 50 mL LB media and antibiotic selection pressure, with shaking at 230 rpm. Each culture was induced overnight at 16° C. using 1 mM IPTG.
(§2) The pellet from each induced shake flask culture was harvested via centrifugation. Each pellet was resuspended and lysed via sonication. The cell debris was separated from the supernatant via centrifugation and the cell free extract was used immediately in enzyme activity assays.
Enzyme activity in the forward direction (i.e., pimelate semialdehyde to 7-aminoheptanoate) was confirmed for the transaminases of SEQ ID NO 9, SEQ ID NO 10 and SEQ ID NO 12. Enzyme activity assays were performed in a buffer composed of a final concentration of 50 mM HEPES buffer (pH=7.5), 10 mM pimelate semialdehyde, 10 mM L-alanine and 100 μM pyridoxyl 5′ phosphate. Each enzyme activity assay reaction was initiated by adding a cell free extract of the ω-transaminase gene product or the empty vector control to the assay buffer containing the pimelate semialdehyde and incubated at 25° C. for 4 h, with shaking at 250 rpm. The formation of pyruvate was quantified via RP-HPLC.

[3] = ω-transaminase activity, 7-aminoheptanol to 7-oxoheptanol, L-alanine formation by RP-HPLC; assay type: biochemical
Description: A nucleotide sequence encoding an N-terminal His-tag was added to the Chromobacterium violaceum, Pseudomonas syringae and Rhodobacter sphaeroides nucleic acids encoding the ω-transaminases of SEQ ID NOs: 7, 9 and 10, respectively (see FIG. 6) such that N-terminal HIS tagged ω-transaminases could be produced. The modified genes were cloned into a pET21a expression vector under the T7 promoter. Each expression vector was transformed into a BL21[DE3] E. coli host. Each resulting recombinant E. coli strain were cultivated at 37° C. in a 250 mL shake flask culture containing 50 mL LB media and antibiotic selection pressure, with shaking at 230 rpm. Each culture was induced overnight at 16° C. using 1 mM IPTG.
as §2
(§3) Enzyme activity assays in the reverse direction (i.e., 7-aminoheptanol to 7-oxoheptanol) were performed in a buffer composed of a final concentration of 50 mM HEPES buffer (pH=7.5), 10 mM 7-aminoheptanol, 10 mM pyruvate, and 100 μM pyridoxyl 5′ phosphate. Each enzyme activity assay reaction was initiated by adding cell free extract of the ω-transaminase gene product or the empty vector control to the assay buffer containing the 7-aminoheptanol and then incubated at 25° C. for 4 h, with shaking at 250 rpm. The formation of L-alanine was quantified via RP-HPLC.

[4] = ω-transaminase activity, reverse direction (7-aminoheptanoate to pimelate semialdehyde), L-alanine formation by RP-HPLC; assay type: biochemical; conditions: cell free extract, 10 mM 7-aminoheptanoate, 10 mM pyruvate, pH 7.5, 25° C., 4 h; FIG. 13
Description: as §1, §2
as §3, with “7-aminoheptanoate” for “7-aminoheptanol”, “pimelate semialdehyde)” for “7-oxoheptanol)”, “7-aminoheptanoate,” for “7-aminoheptanol,”, “pyruvate” for “pyruvate,”, “and” for “and then”, “L-alanine from pyruvate” for “L-alanine”

[5] = carboxylate reductase activity, pimelate to pimelate semialdehyde, NADPH consumption at 340 nm; assay type: biochemical; conditions: purified enzyme enhanced by sfp gene product, 2 mM pimelate, pH 7.5, room temperature, 20 min; FIG. 8
Description: A nucleotide sequence encoding a HIS-tag was added to the nucleic acid sequences from Segniliparus rugosus and Segniliparus rotundus that encode the carboxylate reductases of SEQ ID NOs: 4 (EFV11917.1) and 6 (ADG98140.1), respectively (see FIG. 6), such that N-terminal HIS tagged carboxylate reductases could be produced. Each of the modified genes was cloned into a pET Duet expression vector along with a sfp gene encoding a HIS-tagged phosphopantetheine transferase from Bacillus subtilis, both under the T7 promoter. Each expression vector was transformed into a BL21[DE3] E. coli host and the resulting recombinant E. coli strains were cultivated at 37° C. in a 250 mL shake flask culture containing 50 mL LB media and antibiotic selection pressure, with shaking at 230 rpm. Each culture was induced overnight at 37° C. using an auto-induction media.
The pellet from each induced shake flask culture was harvested via centrifugation. Each pellet was resuspended and lysed via sonication, and the cell debris was separated from the supernatant via centrifugation. […]
Enzyme activity assays (i.e., from pimelate to pimelate semialdehyde) were performed in triplicate in a buffer composed of a final concentration of 50 mM HEPES buffer (pH=7.5), 2 mM pimelate, 10 mM MgCl2, 1 mM ATP and 1 mM NADPH. […] The consumption of NADPH was monitored by absorbance at 340 nm. […]

Row | Molecule | activity with 7-aminoheptanoate / 7-aminoheptanoic acid (to pimelate semialdehyde) [1] | reversibility of ω-transaminase activity: pimelate semialdehyde accepted, 7-aminoheptanoate synthesized [2] | acceptance of 7-aminoheptanol as substrate (conversion of pyruvate to L-alanine) against the empty vector control ([3]; cell free extract, 10 mM 7-aminoheptanol, 10 mM pyruvate, pH 7.5, 25° C., 4 h, FIG. 17) | acceptance of 7-oxoheptanol as substrate forming 7-aminoheptanol, concluded from reversibility ([3]; inferred from reverse direction assay and Example 1) | acceptance of 7-aminoheptanoate as substrate (conversion of pyruvate to L-alanine) against the empty vector control [4] | acceptance of pimelate as substrate (NADPH consumption) against the empty vector control [5]
1 | B1 | demonstrated analogous activity accepting 7-aminoheptanoic acid as amino donor | accepted pimelate semialdehyde as substrate and synthesized 7-aminoheptanoate as a reaction product | accepted 7-aminoheptanol as substrate | accept 7-oxoheptanol as substrate and form 7-aminoheptanol | accepted 7-aminoheptanote as substrate | –
2 | B2 | – | – | – | – | – | accepted pimelate as substrate
